Experimental findings from the supplement of paper PMC11316812 are described below.

± gives the standard deviation of the averaged measurements.

One data set relates to MCF7. Briefly: percentage of EdU-negative (G0-arrested) nuclei per well, 72 h; higher = more G0 arrest. As to conditions: reference: sequence is the full UniProt precursor, the tested protein was the secreted form or ectodomain.
The next data set concerns hTERT-HMEC. The data set is described as above. To be noted: reference: sequence is the full UniProt precursor, the tested protein was the secreted form or ectodomain.
Where [1] appears, read: protein concentration 0.01475 µM.
Where [2] appears, read: protein concentration 0.1475 µM.
[3] abbreviates: protein concentration 0.0225 µM.
Where [4] appears, read: protein concentration 0.0168571 µM.
[5] abbreviates: protein concentration 0.168571 µM.
Where [6] appears, read: protein concentration 0.021935 µM.
Setting [7] is: protein concentration 0.21935 µM.
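Also: secreted proteins added to cultured cells, EdU pulse at the end, nuclei found by Hoechst imaging, EdU status from nuclear versus surrounding ring intensity ratio, PBS as neutral control.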

Regarding “MLLRLLLAWAAAGPTLGQDPWAAEPRAACGPSSCYALFPRRRTFLEAWRACRELGGDLATPRTPEEAQRVDSLVGAGPASRLLWIGLQRQARQCQLQRPLRGFTWTTGDQDTAFTNWAQPASGGPCPAQRCVALEASGEHRWLEGSCTLAVDGYLCQFGFEGACPALQDEAGQAGPAVYTTPFHLVSTEFEWLPFGSVAAVQCQAGRGASLLCVKQPEGGVGWSRAGPLCLGTGCSPDNGGCEHECVEEVDGHVSCRCTEGFRLAADGRSCEDPCAQAPCEQQCEPGGPQGYSCHCRLGFRPAEDDPHRCVDTDECQIAGVCQQMCVNYVGGFECYCSEGHELEADGISCSPAGAMGAQASQDLGDELLDDGEDEEDEDEAWKAFNGGWTEMPGILWMEPTQPPDFALAYRPSFPEDREPQIPYPEPTWPPPLSAPRVPYHSSVLSVTRPVVVSATHPTLPSAHQPPVIPATHPALSRDHQIPVIAANYPDLPSAYQPGILSVSHSAQPPAHQPPMISTKYPELFPAHQSPMFPDTRVAGTQTTTHLPGIPPNHAPLVTTLGAQLPPQAPDALVLRTQATQLPIIPTAQPSLTTTSRSPVSPAHQISVPAATQPAALPTLLPSQSPTNQTSPISPTHPHSKAPQIPREDGPSPKLALWLPSPAPTAAPTALGEAGLAEHSQRDDRWLLVALLVPTCVFLVVLLALGIVYCTRCGPHAPNKRITDCYRWVIHAGSKSPTEPMPPRGSLTGVQTCRTSV [Q9HCU0]”, the “percentage of EdU-negative” value was found to be 25.7 ± 2.5% in the data set with MCF7 (setting [1]), 27.5 ± 1.9% in the data set with MCF7 (setting [2]), 4.69 ± 0.05% with hTERT-HMEC (setting [1]) and 6.87 ± 0.4% in the data set with hTERT-HMEC (setting [2]).

For “MLLSVPLLLGLLGLAVAEPAVYFKEQFLDGDGWTSRWIESKHKSDFGKFVLSSGKFYGDEEKDKGLQTSQDARFYALSASFEPFSNKGQTLVVQFTVKHEQNIDCGGGYVKLFPNSLDQTDMHGDSEYNIMFGPDICGPGTKKVHVIFNYKGKNVLINKDIRCKDDEFTHLYTLIVRPDNTYEVKIDNSQVESGSLEDDWDFLPPKKIKDPDASKPEDWDERAKIDDPTDSKPEDWDKPEHIPDPDAKKPEDWDEEMDGEWEPPVIQNPEYKGEWKPRQIDNPDYKGTWIHPEIDNPEYSPDPSIYAYDNFGVLGLDLWQVKSGTIFDNFLITNDEAYAEEFGNETWGVTKAAEKQMKDKQDEEQRLKEEEEDKKRKEEEEAEDKEDDEDKDEDEEDEEDKEEDEEEDVPGQAKDEL”, the “percentage of EdU-negative” value in the data set on MCF7 (setting [3]) is 21.8 ± 0.44%; with MCF7 (protein concentration 0.225 µM), 28.2 ± 2.5%; in the data set on hTERT-HMEC (setting [3]) it was 5.2 ± 0.44%; in the data set with hTERT-HMEC (protein concentration 0.225 µM), 15.5 ± 2.6%.

With “MLLVLVVLIPVLVSSGGPEGHYEMLGTCRMVCDPYPARGPGAGARTDGGDALSEQSGAPPPSTLVQGPQGKPGRTGKPGPPGPPGDPGPPGPVGPPGEKGEPGKPGPPGLPGAGGSGAISTATYTTVPRVAFYAGLKNPHEGYEVLKFDDVVTNLGNNYDAASGKFTCNIPGTYFFTYHVLMRGGDGTSMWADLCKNGQVRASAIAQDADQNYDYASNSVILHLDAGDEVFIKLDGGKAHGGNSNKYSTFSGFIIYSD”, the “percentage of EdU-negative” value in the data set with MCF7 (setting [4]) is 27 ± 0.61%; in the data set with MCF7 (setting [5]) it was 28.3 ± 0.59%; with hTERT-HMEC (setting [4]) it was 4.78 ± 0.083%; with hTERT-HMEC (setting [5]) it was 8.79 ± 0.3%.

On to “MLLWVILLVLAPVSGQFARTPRPIIFLQPPWTTVFQGERVTLTCKGFRFYSPQKTKWYHRYLGKEILRETPDNILEVQESGEYRCQAQGSPLSSPVHLDFSSASLILQAPLSVFEGDSVVLRCRAKAEVTLNNTIYKNDNVLAFLNKRTDFHIPHACLKDNGAYRCTGYKESCCPVSSNTVKIQVQEPFTRPVLRASSFQPISGNPVTLTCETQLSLERSDVPLRFRFFRDDQTLGLGWSLSPNFQITAMWSKDSGFYWCKAATMPYSVISDSPRSWIQVQIPASHPVLTLSPEKALNFEGTKVTLHCETQEDSLRTLYRFYHEGVPLRHKSVRCERGASISFSLTTENSGNYYCTADNGLGAKPSKAVSLSVTVPVSHPVLNLSSPEDLIFEGAKVTLHCEAQRGSLPILYQFHHEGAALERRSANSAGGVAISFSLTAEHSGNYYCTADNGFGPQRSKAVSLSVTVPVSHPVLTLSSAEALTFEGATVTLHCEVQRGSPQILYQFYHEDMPLWSSSTPSVGRVSFSFSLTEGHSGNYYCTADNGFGPQRSEVVSLFVTVPVSRPILTLRVPRAQAVVGDLLELHCEAPRGSPPILYWFYHEDVTLGSSSAPSGGEASFNLSLTAEHSGNYSCEANNGLVAQHSDTISLSVIVPVSRPILTFRAPRAQAVVGDLLELHCEALRGSSPILYWFYHEDVTLGKISAPSGGGASFNLSLTTEHSGIYSCEADNGLEAQRSEMVTLKVAVPVSRPVLTLRAPGTHAAVGDLLELHCEALRGSPLILYRFFHEDVTLGNRSSPSGGASLNLSLTAEHSGNYSCEADNGLGAQRSETVTLYITGLTANRSGPFATGVAGGLLSIAGLAAGALLLYCWLSRKAGRKPASDPARSPSDSDSQEPTYHNVPAWEELQPVYTNANPRGENVVYSEVRIIQEKKKHAVASDPRHLRNKGSPIIYSEVKVASTPVSGSLFLASSAPHR [Q96RD9]”, for which the “percentage of EdU-negative” value was 26 ± 0.75% with MCF7 (setting [3]), 31.1 ± 3.2% with MCF7 (protein concentration 0.225 µM), 4.23 ± 0.27% in the data set with hTERT-HMEC (setting [3]) and 5.41 ± 0.94% with hTERT-HMEC (protein concentration 0.225 µM).

As to “MLPAAMKGLGLALLAVLLCSAPAHGLWCQDCTLTTNSSHCTPKQCQPSDTVCASVRITDPSSSRKDHSVNKMCASSCDFVKRHFFSDYLMGFINSGILKVDVDCCEKDLCNGAAGAGHSPWALAGGLLLSLGPALLWAGP”, the “percentage of EdU-negative” value in the data set with MCF7 (setting [3]) was 25.6 ± 3.3%; in the data set on MCF7 (protein concentration 0.225 µM) it was 26.7 ± 1.4%; with hTERT-HMEC (setting [3]) it was 4.57 ± 0.15%; in the data set on hTERT-HMEC (protein concentration 0.225 µM), 5.48 ± 0.5%.

Regarding “MLPAATASLLGPLLTACALLPFAQGQTPNYTRPVFLCGGDVKGESGYVASEGFPNLYPPNKECIWTITVPEGQTVSLSFRVFDLELHPACRYDALEVFAGSGTSGQRLGRFCGTFRPAPLVAPGNQVTLRMTTDEGTGGRGFLLWYSGRATSGTEHQFCGGRLEKAQGTLTTPNWPESDYPPGISCSWHIIAPPDQVIALTFEKFDLEPDTYCRYDSVSVFNGAVSDDSRRLGKFCGDAVPGSISSEGNELLVQFVSDLSVTADGFSASYKTLPRGTAKEGQGPGPKRGTEPKVKLPPKSQPPEKTEESPSAPDAPTCPKQCRRTGTLQSNFCASSLVVTATVKSMVREPGEGLAVTVSLIGAYKTGGLDLPSPPTGASLKFYVPCKQCPPMKKGVSYLLMGQVEENRGPVLPPESFVVLHRPNQDQILTNLSKRKCPSQPVRAAASQD”, the “percentage of EdU-negative” value in the data set with MCF7 (setting [6]) was determined as 22.7 ± 2.1%; in the data set with MCF7 (setting [7]), 26.5 ± 0.72%; in the data set with hTERT-HMEC (setting [6]), 4.8 ± 0.62%; with hTERT-HMEC (setting [7]), 6.48 ± 0.73%.
